{"source": "the DeepSol protein solubility set", "test": "soluble on expression in E. coli; label from the status in PepcDB or PDB records", "data": [{"sequence": "MSSDRSGAAAKASAGQCSSDRPLAVAADPKQYSMALCPDTPSYSLCGRLKSEWDKQSAAASPGPAAYDVPGYFDTLDPQQQQRHLWSGPVPGVHLGIRTVLPESREKAGVPGPGAYQLVRFGDELPRAREPLITRSSRRGRGAAADTPGPGAYDDPTSIAYRADQVRRKRLFTQCSTFGGRWCRREFHTAGPGPAAYNTLVATKLLEKNQRHAPRLVRRQPPLDRQSVAEAAAARMKVSGPPNPQAFPTLPSDFDFDFRKGKTIGGKPHEPLARTAPSHLTQAADDKPSGSRAFWESPPPPGGRFAATPFDPQSHSLAAEKAGTNAARLAEAGNCKPGPGSYNVEVDPTARRVPASLFGRTLSAKSVSVENGVPGPGHYRVVDDTSGRGTIFYKGDFHPRGCSGQGGSAAESLGVGPGAHYNDDTMYSNSINGDRAHNKGFTMGIRYPARATYQHCAPYDETTNINCVYDDELNWVVRPNQHLPLIRRGKL", "values": [{"measurement": "soluble on expression in E. coli", "value": "not soluble"}]}, {"sequence": "MGHHHHHHSHMIRDLEYYDSPILRKVAAPVTEITDELRQLVLDMSETMAFYKGVGLAAPQVGQSISLFIMGVERELEDGELVFCDFPRVFINPVITQKSEQLVYGNEGCLSIPGLRGEVARPDKITVSAKNLDGQQFSLALEGFLASIVMHETDHLHGVLYIDRMSDKDKTKQFKNNLEKIRRKYSILRGL", "values": [{"measurement": "soluble on expression in E. coli", "value": "soluble"}]}, {"sequence": "MDEIEKNNGEIIIYRTEDGRTQLEVRLENENVWLSQQQMSELFQTSRTNIVEHIKHIFEEGELEENSTCQIFRQVRIEGTRKVERSIPFYNLDMIISLGYRVKSRVATHFRRWATERLKEYLIKGFAMDDQRLKEIGGGGYWYELLNRIRDIRSSEKVLYRQVLDLYATSVDYDPKADESIRFFKIVQNKLHYAAHGHTAAEVIFERADAEKPFMGLATFPGEQPRKEDVLIAKNYLNEKELKILNNLVSGYFDFAEIQAIKRSPMYMSDYIHHLDLILSTTGEQVLQNAGTISHEQAKQKALGEYRKYHVKTLSPVEEAYFDSIKKLTAETKKKKKK", "values": [{"measurement": "soluble on expression in E. coli", "value": "not soluble"}]}, {"sequence": "KVNMDLRANLKQVKKEDTEKEKDLRDVGDWRKNIEEKSGMEGRKKMFEAGES", "values": [{"measurement": "soluble on expression in E. coli", "value": "soluble"}]}, {"sequence": "MKKERKPKIVIMGGGTGLSVLLRGLKQYPVDITAVVTIADDGGSSGRLRDELEIPPPGDIRNVLVALSDVEPLVEALFQHRFTTGDGLKGHALGNLLLAGMTSITGDFFHAITETSKVLNVRGRVLPAANQSAVLHAELEDGEIVTGESKIPYYGKKINRVFLTPEDVEPLHETLAEIKRADLLVFGPGSLYTSILPNLVVNKIGDAVLAAKAKKVYVCNVMTQAGETMGYTAFDHVQALHDHLGQPFINTAIVNNREIPCELRKSYEEEMSTPVVVDEERFVENNIDVIQEGLAKYDDHVVRHDTLKLASILYSLLMAGDPLEHHHHHH", "values": [{"measurement": "soluble on expression in E. coli", "value": "soluble"}]}, {"sequence": "LLAKEKYNGTESDDKYDPVEIVKWKIDREDGRKTLNSYINVLVLGLDDDEKRSDVIALINYNPDENKMNILSIARDTRVKVNGKYMKINALIGKGGEKMVIDMVEDITGLPVDYYVTLNFKGFREIVDTLGGVEINVPFDMDYDDPYQNLHIHLKKGKQVLDGKKAEQFVRYRKGNHNGEGYEDGDLGRIKMQQLFMREFVNQKLKLKYLLKADEIFYTLKKNMRTNIEIGDIRYFIKDIKNIKTPEINGYTLPGYSRYIGGQWFYIYDKKKTKELIEQNFYYSN", "values": [{"measurement": "soluble on expression in E. coli", "value": "soluble"}]}, {"sequence": "MKKILLVFLVGTMAFAAYGAEGDVQVSKSVEDSITKDYDQDGVYSSYEKALRRAQESVYVTLPEKRGYWYTMLDRIKAEEEELMPDEQARMRRKR", "values": [{"measurement": "soluble on expression in E. coli", "value": "not soluble"}]}, {"sequence": "MAKYQTIEAAVRSEFGKGSARRARVAGQIPAVVYGADVESNLHVTIDHRTFAALVRQEGVNAVLELDIEGQKQLTMIKHIDQNVLTFHIDHLDLLAI", "values": [{"measurement": "soluble on expression in E. coli", "value": "not soluble"}]}, {"sequence": "KRLILLDYDGTLVPFQKRPEDASPTPQLLDTLQKLTADPLNHVVINSGRDHFTLEKWLGALPISFAAEHGAFYKENGVWHKNVHAQEWSPGLLSILKLFVSKTPRSHLEVKETALAWHYRETDAWLGRLRAQQLVNSLISICLKQNLQIMQGNKVIEIKSPEFTKGSEVNRLLLATRYDFILAMGDDTTDDDMFKALPVTAVTVKIGTASESARYNLPVQTDTLPFLQRLTDKSVVKAALKSGLKGQLSSAIDFLKRIINH", "values": [{"measurement": "soluble on expression in E. coli", "value": "not soluble"}]}, {"sequence": "LLERLPVPVLAVQHDGVVVYSNRAFERMLDYPPNEVGNHLIGDLMQTASPGPSAVAELRESAGKLVALTHRDGSTVRAFVSESVLERHDDPVTLVCFHDVT", "values": [{"measurement": "soluble on expression in E. coli", "value": "not soluble"}]}]}
